Source: the supplement of paper PMC10567573

B1: PDS5B (parent)
chain: IYKKYALQSAAGKDAAKQIAWIKD
B2: TSN (parent)
chain: FLAAEQDIREEIRKVVQSLEQTAR

Variants of: B1
Test: protein stability index of a GFP-peptide fusion (GPS, HEK-293T) (PSI 1-6); higher = more stable
Settings: c terminus: a fixed tail appended
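Further: lentivirally expressed fusions sorted by FACS into six bins by GFP to DsRed ratio, PSI derived from sequencing read proportions per bin multiplied by bin number.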

Protein stability index of substitutions, site by site:
K4: R 2.25; C 1.61; Q 2.6; I 2.44; N 2.68; V 1.55; S 2.23; Y 1.84; F 2.32; H 2.39; G 2.61; L 1.75; M 1.95; T 2.7; A 2.13; D 3.24; P 2.71; E 2.68; W 1.35
Y5: W 1.98; F 1.92; K 2.93; C 1.75; P 3.63; L 2.36; T 3.36; G 2.82; V 2.89; A 2.78; I 2.26; S 2.65; E 3.09; H 2.46; Q 2.99; M 1.91; R 2.43; D 3.79; N 2.93
Y2: F 1.67; A 2.32; V 2.27; M 4.12; N 2.98; C 2.96; S 2.84; P 3.19; W 2.32; K 2.87; H 3.02; G 3.38; Q 2.5; E 3.9; L 2.34; D 3.75; I 1.77; T 2.98; R 2.38
Q8: A 2.4; C 1.29; D 2.27
I1: P 2.77; R 2.5; L 2.12; C 3.19; Y 2.1; V 2.61; G 2.81; D 3.71; T 3.11; K 2.75; F 1.68; A 2.62; H 3.36; S 2.63; W 2.14; M 2.08; Q 3.23; E 3.79; N 2.41
A6: F 2.49; T 2.39; L 1.86; W 2; N 2.18; H 1.97; R 2.55; G 2.88; S 2.49; K 2.18; D 2.32; V 1.82; C 1.85; Q 2.85; E 3.2; I 2.12; M 1.8; Y 1.52; P 3.02
K3: Y 2.19; M 1.72; A 2.26; W 2.95; H 2.36; C 1.51; Q 2.33; G 2.24; N 2.27; F 2.15; L 2.4; T 2.15; R 2.56; V 1.75; E 2.88; S 2.48; P 2.65; I 2.93; D 3.43
L7: P 2.92; G 2.42; E 2.76; D 3.16; S 2.68; Y 2.04; F 1.68; N 2.81; C 1.93; H 2.6; Q 3.06; I 1.95; K 2.55; A 2.5; W 1.69; R 2.3; V 2.32; T 2.63; M 2.32

Variants of: B2
Test: as above
Settings: c terminus: a fixed tail appended

Protein stability index: each site, then its substitutions
R24: V 1.7; A 2.26; L 2.49; P 2.28; H 1.47; N 2.21; F 2.07; M 2.68; D 2.4; K 1.7; S 2.16; W 1.69; T 2.08; G 2.18; Y 1.94; Q 1.74; I 3.12; E 2.13; C 1.82
S18: G 1.7; D 2.31; E 2.54; M 2.22; A 1.67; L 2.22; K 2.35; R 2.27; C 2.28; T 2.18; W 1.62; I 1.92; V 2.52; P 2.3; F 1.39; H 1.71; Q 2.24; N 2.25; Y 1.57
V16: A 2.3; E 2.21; K 2.38; L 2.2; Y 2.83; I 1.86; T 1.68; C 2.13; P 3.24; N 3.03; G 3.36; W 1.74; S 1.93; Q 2.35; H 2.26; F 2.77; M 1.73; D 3.78; R 2.15
E20: Y 2.07; T 2.3; S 2.57; R 2.44; M 2.33; C 2.57; K 2.29; A 3.05; F 2.73; G 2.28; I 2.05; N 2.08; H 2.55; L 2.13; Q 2.35; V 2.29; W 2.64; P 3.47; D 2.77
K14: S 2.07; Q 2.05; P 3.76; V 1.83; Y 2.3; W 1.77; R 3.3; T 2.25
L19: R 3.38; V 3.02; K 3.44; Q 3.39; Y 3.01; T 3.76; C 4.16; P 3.9; D 3.6; N 3.8; E 4.16; I 2.41; W 3.12; S 3.33; A 3.72; M 2.33; H 2.96; F 2.14; G 3.51
V15: Y 3.44; C 2.56; S 3.07; L 2.48; G 3.29; I 2.19; W 2.4; M 2.17; A 3.48; E 4.34; Q 3.54; H 2.8; K 3.37; F 2.96; T 2.61; R 3.31; N 3.76; P 3; D 3.62
Q21: E 1.9; S 1.9; M 1.68; I 2.27; Y 1.64; C 2.01; A 2.14; P 2.41; W 1.87; K 1.78; T 1.92; N 1.83; F 1.81; D 1.78; G 2.08; V 1.5; R 2.15; H 1.8; L 1.91
A23: K 1.75; H 2.11; R 1.87; G 2.21; Y 1.88; C 1.99; P 2.15; D 1.57; V 2.13; T 1.76; S 1.8; Q 1.96; I 2.52; E 2.68; F 2.19; M 1.87; L 2.34; N 1.8; W 2.1
Q17: I 2.06; A 2.47; T 1.84; G 1.92; H 1.98; M 2.6; W 1.72; S 2.78; P 3.32; L 2.42; F 1.58; Y 1.6; C 2.3; V 1.87; K 2.52; N 2.15; E 1.77; R 2.02; D 1.78
T22: Y 1.81; R 2.99; G 1.24; L 3.07; K 1.95; C 1.84; I 2.61; P 2.16; S 1.98; H 1.67; F 2.42; E 2.48; Q 2.1; M 2.57; N 2.36; D 2.5; A 2.38; W 2.32; V 2.55
